Legend:
[1] = biological target: hydrogenosomal heat shock protein 70 (HdHSP70); assay: co-immunoprecipitation with anti-HA antibody, Western blotting; details: total lysate, three experiments
[2] = biological target: heat shock protein 72 (TvHSP72); assay: as above; details: three experiments
[3] = biological target: binding immunoglobulin protein (TvBip); assay: as above; details: three experiments
Myb3 (endogenous) = assay: as above; details: for ratio to parent: three experiments
TvMyb3IPhmw = assay: as above; details: P100 fraction; three experiments
[4] = biological target: His-TvCyP2 (Trichomonas vaginalis) (UniProt A2DLL4); assay: ITC

Kd [4] [µM] | Substance | ratio to parent ([1]; ** p < 0.01) | ratio to parent ([2]; total lysate, ** p < 0.01) | ratio to parent ([3]; total lysate) | ratio to parent (Myb3 (endogenous); total lysate, ** p < 0.01) | ratio to parent [1] | ratio to parent ([2]; P100 fraction, * p < 0.05) | ratio to parent ([2]; S100 fraction, ** p < 0.01) | ratio to parent (TvMyb3IPhmw) | ratio to parent ([3]; P15 fraction) | ratio to parent ([3]; P100 fraction) | ratio to parent ([3]; total lysate, ** p < 0.01) | other: relative signal intensity (Myb3 (endogenous)) | ratio to parent (Myb3 (endogenous); P15 fraction, * p < 0.05) | ratio to parent (Myb3 (endogenous); P100 fraction, ** p < 0.01)
– | HA-TvCyP1 (from UniProt A2DT06) R63A | 0.1 | 0.5 | 1 | 0.6 | – | – | – | – | – | – | – | – | – | –
– | HA-TvCyP2 (from UniProt A2DLL4) R75A | – | 1.6 | – | 0.4 | 0.9 | 0.7 | 0.6 | 1 | 1 | 1 | 0 | 0.1 | 0.7 | 0.5
55 | His-Myb3^53–180 (domain or fragment) | – | – | – | – | – | – | – | – | – | – | – | – | – | –
